The results in this text go back to patent US20250084453.

The target in data set [1] is BRD4, endogenous in HEK293T cells (UniProt O60885).
The target in data set [2] is V5-tagged IKZF1 protein (UniProt Q13422).
The target of data set [3] is VCL (vinculin), endogenous in HEK293T cells (UniProt P18206).
Data set [4] concerns the target translation termination factor GSPT1, endogenous in HEK293T cells (UniProt P15170).
Data set [5] concerns the target BRD3, endogenous in HEK293T cells (UniProt Q15059).
Data set [6] addresses translation termination factor GSPT2, endogenous in HEK293T cells (UniProt Q8IYD1).
In data set [7] the target is BRD2, endogenous in HEK293T cells (UniProt P25440).
Data set [8] addresses GLUL (glutamine synthetase), endogenous in HEK293T cells (UniProt P15104).
Data set [9] addresses T1, RBM39 (RNA-Binding Motif Protein 39)/CAPERα, endogenous in HEK293T cells (UniProt Q14498).
T1 sequence: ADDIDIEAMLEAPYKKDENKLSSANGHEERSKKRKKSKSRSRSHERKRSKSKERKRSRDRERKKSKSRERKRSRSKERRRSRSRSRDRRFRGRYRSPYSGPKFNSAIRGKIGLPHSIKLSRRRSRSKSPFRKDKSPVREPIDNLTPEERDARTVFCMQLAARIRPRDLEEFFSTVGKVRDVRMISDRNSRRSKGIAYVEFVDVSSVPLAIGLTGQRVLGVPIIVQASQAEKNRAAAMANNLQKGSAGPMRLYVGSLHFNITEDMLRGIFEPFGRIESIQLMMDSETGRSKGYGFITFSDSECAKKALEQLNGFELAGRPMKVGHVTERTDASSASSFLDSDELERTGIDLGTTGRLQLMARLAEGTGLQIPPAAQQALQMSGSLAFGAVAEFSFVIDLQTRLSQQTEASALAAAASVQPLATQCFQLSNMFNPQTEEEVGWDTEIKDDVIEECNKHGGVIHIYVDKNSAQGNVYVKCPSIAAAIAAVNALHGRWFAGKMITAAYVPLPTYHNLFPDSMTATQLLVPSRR

The target of data set [10] is HIF1A, endogenous in HEK293T or A375 cells (UniProt Q16665).
Chain of HIF1A, endogenous in HEK293T or A375 cells (Q16665 whole entry, looked up): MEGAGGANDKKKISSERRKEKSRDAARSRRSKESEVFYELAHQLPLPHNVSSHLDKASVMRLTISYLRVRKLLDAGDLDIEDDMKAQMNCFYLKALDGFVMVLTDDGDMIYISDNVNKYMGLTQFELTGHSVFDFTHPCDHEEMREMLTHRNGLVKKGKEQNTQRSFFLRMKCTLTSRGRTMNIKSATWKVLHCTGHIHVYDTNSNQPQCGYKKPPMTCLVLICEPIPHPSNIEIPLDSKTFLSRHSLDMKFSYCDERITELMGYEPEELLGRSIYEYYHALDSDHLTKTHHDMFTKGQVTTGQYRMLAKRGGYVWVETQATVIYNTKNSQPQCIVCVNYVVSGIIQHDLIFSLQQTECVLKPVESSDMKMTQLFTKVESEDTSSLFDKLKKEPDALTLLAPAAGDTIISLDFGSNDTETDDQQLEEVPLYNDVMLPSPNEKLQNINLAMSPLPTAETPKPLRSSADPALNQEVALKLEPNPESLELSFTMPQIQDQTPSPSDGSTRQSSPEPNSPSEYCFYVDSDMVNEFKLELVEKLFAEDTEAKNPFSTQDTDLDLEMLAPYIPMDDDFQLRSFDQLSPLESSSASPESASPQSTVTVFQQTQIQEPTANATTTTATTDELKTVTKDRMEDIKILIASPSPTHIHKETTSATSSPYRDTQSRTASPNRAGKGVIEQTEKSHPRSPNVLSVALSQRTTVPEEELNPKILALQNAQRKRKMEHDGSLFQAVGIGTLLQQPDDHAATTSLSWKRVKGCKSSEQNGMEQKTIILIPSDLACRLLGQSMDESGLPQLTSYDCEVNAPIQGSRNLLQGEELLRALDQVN

Chain of VCL (vinculin), endogenous in HEK293T cells (P18206 other isoform, or with tags, fused parts or gaps): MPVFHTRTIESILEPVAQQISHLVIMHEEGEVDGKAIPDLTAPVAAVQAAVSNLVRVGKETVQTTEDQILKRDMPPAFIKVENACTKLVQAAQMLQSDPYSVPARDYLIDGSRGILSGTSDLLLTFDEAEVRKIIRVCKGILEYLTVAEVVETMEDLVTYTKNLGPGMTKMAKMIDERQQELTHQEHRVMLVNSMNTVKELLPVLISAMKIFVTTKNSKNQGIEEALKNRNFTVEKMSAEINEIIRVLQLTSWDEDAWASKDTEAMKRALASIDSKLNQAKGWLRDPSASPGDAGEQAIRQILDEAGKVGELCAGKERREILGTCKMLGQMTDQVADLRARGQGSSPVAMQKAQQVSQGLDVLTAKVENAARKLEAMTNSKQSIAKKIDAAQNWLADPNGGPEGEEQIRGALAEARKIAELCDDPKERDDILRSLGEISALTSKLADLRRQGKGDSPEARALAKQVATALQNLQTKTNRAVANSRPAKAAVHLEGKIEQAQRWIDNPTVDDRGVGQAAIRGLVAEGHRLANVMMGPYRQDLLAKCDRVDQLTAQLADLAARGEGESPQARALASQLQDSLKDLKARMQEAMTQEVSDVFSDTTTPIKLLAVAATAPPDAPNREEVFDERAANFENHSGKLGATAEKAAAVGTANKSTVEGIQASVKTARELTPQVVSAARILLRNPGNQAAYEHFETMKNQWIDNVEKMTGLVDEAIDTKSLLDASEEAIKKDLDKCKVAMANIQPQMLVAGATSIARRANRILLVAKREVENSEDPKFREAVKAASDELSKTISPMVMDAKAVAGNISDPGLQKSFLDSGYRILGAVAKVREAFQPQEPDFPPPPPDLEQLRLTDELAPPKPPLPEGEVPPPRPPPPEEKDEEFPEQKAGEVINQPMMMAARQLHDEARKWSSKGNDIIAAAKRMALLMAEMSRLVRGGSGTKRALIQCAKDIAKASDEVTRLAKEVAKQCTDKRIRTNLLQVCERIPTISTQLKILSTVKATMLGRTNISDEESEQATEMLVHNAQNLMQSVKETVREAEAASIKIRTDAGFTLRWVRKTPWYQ
Chain of V5-tagged IKZF1 protein (Q13422 whole entry, looked up): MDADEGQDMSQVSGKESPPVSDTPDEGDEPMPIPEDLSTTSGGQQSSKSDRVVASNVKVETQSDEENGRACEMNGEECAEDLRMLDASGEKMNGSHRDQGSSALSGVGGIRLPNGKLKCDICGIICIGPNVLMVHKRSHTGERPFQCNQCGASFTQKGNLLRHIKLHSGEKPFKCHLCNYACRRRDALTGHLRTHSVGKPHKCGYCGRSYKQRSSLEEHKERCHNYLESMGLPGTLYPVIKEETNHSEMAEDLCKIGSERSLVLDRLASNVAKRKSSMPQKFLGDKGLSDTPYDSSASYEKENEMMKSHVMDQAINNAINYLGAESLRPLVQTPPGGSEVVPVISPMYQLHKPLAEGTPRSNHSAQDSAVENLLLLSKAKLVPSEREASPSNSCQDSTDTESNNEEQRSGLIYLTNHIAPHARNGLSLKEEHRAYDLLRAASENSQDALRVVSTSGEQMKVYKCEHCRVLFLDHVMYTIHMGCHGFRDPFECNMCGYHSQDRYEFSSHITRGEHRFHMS
Chain of translation termination factor GSPT1, endogenous in HEK293T cells (P15170 whole entry): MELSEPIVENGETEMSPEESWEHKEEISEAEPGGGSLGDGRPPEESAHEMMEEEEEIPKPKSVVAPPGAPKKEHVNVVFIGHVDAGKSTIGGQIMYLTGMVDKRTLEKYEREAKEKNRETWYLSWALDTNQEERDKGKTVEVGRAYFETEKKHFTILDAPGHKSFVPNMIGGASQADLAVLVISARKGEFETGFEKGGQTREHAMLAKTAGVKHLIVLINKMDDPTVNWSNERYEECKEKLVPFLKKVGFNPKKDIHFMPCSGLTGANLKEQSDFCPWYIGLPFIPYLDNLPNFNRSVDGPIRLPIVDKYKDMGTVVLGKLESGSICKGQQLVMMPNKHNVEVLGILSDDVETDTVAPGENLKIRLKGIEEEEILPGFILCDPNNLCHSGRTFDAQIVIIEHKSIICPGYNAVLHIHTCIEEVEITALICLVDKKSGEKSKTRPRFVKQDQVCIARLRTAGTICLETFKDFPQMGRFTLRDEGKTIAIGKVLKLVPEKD
Chain of translation termination factor GSPT2, endogenous in HEK293T cells (Q8IYD1 whole entry): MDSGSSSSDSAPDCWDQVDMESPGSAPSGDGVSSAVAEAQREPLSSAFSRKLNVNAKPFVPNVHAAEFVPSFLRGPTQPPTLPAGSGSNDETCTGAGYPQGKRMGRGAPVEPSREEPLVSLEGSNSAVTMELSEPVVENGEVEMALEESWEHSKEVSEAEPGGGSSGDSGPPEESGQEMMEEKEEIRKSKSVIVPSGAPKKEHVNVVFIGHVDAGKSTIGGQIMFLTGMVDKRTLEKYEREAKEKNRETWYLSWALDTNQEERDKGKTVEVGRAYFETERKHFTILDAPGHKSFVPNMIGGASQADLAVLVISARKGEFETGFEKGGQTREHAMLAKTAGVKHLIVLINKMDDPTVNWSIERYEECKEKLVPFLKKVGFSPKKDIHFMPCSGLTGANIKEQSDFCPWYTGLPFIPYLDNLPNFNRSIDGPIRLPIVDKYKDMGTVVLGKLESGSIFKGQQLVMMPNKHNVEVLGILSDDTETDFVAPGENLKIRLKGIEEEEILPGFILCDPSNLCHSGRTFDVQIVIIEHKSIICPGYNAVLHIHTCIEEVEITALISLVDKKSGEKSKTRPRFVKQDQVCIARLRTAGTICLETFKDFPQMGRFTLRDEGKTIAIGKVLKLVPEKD
Chain of BRD2, endogenous in HEK293T cells (P25440 whole entry, looked up): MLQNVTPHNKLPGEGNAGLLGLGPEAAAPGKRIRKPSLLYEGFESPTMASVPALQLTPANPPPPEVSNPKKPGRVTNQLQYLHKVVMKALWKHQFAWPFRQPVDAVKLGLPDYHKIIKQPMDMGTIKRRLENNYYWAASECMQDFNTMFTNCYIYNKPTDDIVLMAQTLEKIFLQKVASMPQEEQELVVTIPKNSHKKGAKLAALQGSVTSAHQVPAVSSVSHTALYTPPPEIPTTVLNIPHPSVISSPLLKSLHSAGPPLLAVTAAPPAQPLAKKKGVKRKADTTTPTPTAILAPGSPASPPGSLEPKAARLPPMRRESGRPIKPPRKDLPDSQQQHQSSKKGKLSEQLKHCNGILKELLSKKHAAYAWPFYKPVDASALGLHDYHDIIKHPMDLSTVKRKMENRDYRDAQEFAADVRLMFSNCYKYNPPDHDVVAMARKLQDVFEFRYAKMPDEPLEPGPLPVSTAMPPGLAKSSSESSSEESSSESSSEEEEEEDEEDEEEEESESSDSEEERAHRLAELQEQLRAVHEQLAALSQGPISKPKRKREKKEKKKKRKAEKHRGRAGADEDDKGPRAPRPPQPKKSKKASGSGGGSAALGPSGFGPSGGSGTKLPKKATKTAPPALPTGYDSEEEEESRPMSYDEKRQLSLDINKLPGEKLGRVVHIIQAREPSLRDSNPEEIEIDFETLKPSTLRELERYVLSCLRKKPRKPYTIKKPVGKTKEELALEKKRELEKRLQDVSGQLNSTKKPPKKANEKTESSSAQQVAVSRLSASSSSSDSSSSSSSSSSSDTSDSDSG
Chain of BRD3, endogenous in HEK293T cells (Q15059 2-726): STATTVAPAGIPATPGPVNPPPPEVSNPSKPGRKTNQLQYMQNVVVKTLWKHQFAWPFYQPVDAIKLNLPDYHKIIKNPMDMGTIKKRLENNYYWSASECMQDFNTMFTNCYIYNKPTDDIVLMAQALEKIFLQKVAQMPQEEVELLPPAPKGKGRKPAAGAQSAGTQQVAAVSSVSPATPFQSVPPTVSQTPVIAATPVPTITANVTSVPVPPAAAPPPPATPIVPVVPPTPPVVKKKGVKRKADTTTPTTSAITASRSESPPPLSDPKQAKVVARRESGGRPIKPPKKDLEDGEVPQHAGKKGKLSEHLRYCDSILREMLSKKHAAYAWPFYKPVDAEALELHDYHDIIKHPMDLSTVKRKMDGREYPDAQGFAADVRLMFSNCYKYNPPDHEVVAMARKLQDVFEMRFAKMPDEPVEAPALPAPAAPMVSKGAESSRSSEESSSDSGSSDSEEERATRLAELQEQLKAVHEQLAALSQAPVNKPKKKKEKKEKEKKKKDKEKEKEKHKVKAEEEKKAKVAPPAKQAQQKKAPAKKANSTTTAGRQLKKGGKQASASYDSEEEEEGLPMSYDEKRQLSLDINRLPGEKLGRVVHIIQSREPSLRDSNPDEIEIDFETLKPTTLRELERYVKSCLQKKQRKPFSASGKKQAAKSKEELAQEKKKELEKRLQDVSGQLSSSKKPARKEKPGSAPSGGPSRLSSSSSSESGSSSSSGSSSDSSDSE

Take “CRBN E3 ligase fused at its carboxy terminus to E. coli wild-type BirA biotin ligase (CRBN-BirA)”: the “differential enrichment in streptavidin pulldown (MS, triplicates, A3-HA-Ub), PROTAC dBET6 (1 µM) against DMSO” value in [1] is “CRBN-BirA; ubiquitinated substrates BRD2, BRD3, BRD4 observed in the upper right portion of the top left volcano plot”. Besides, in [2], the “biotinylated, ubiquitinated V5-IKZF1 in streptavidin bead eluates (Western blot), Avi-Ub or A3-Ub, with pomalidomide (1 µM)” value was “both substrate peptide-tagged ubiquitin variants showed pomalidomide-induced ubiquitination of IKZF1 by E3 ligase CRBN”; the “biotinylated, ubiquitinated V5-IKZF1 in streptavidin pulldown (Western blot, Avi-HA-Ub), with pomalidomide (1 µM)” value is “in conditions where pomalidomide was present, an increased amount of mono- and poly-ubiquitinated V5-IKZF1 was captured by the streptavidin beads”; the “sensitivity in detecting pomalidomide-induced ubiquitination of V5-IKZF1 (Western blot quantification), A3-tagged ubiquitin” value is recorded as 17.76 to 5.58 when comparing A3 to Avi; the “sensitivity in detecting pomalidomide-induced ubiquitination of V5-IKZF1 (Western blot quantification), Avi-tagged ubiquitin” value is 17.76 to 5.58 when comparing A3 to Avi. The “ubiquitinated V5-IKZF1 captured by streptavidin beads (Western blot quantification, Avi-HA-Ub), pomalidomide against DMSO” value in [2] is listed as “approximately 3.9-fold more ubiquitinated V5-IKZF1 substrate was captured by the streptavidin beads”. Besides, the “biotinylation in streptavidin pulldown (MS, A3-HA-Ub, CC-885 1 µM), WT CRBN-BirA against loss-of-function mutants” value (shortened to “biotinylation … against loss-of-function mutants”) in [3] is “substrates GSPT1, GSPT2, VCL and CSNK1A1 were identified”. In [4], the # of PSMs in streptavidin pulldown (MS), A3-Ub, CC-885 was found to be 30 PSMs; the # of PSMs in streptavidin pulldown (MS), A3-Ub, DMSO worked out at 0 PSMs; the # of PSMs in streptavidin pulldown (MS), Avi-Ub, CC-885 amounted to 25 PSMs; the # of PSMs in streptavidin pulldown (MS), Avi-Ub, DMSO is 0 PSMs. In [4], the “biotinylated, ubiquitinated endogenous GSPT1 in streptavidin pulldown (Western blot, Avi-HA-Ub), with CC-885 (1 µM)” value was “mono- and poly-ubiquitinated GSPT1 captured by the streptavidin beads were only observed in conditions where CC-885 was present”; the “biotinylation … against loss-of-function mutants” value was “substrates GSPT1, GSPT2, VCL and CSNK1A1 were identified”; the “differential enrichment in streptavidin pulldown (MS, triplicates, A3-Ub), CC-885 against DMSO” value was “GSPT1 and GSPT2 are observed to be the most upregulated proteins, both by amount and by statistical significance”; the “sensitivity in detecting CC-885-induced ubiquitination of GSPT1 by CRBN (Western blot quantification), A3-tag” value is on record as “when comparing A3-tag to Avi-tag (36.39 to 15.46, respectively)”. Further, in data set [4], the “sensitivity in detecting CC-885-induced ubiquitination of GSPT1 by CRBN (Western blot quantification), Avi-tag” value was “when comparing A3-tag to Avi-tag (36.39 to 15.46, respectively)” and the “ubiquitinated GSPT1 captured by streptavidin beads (Western blot quantification, Avi-HA-Ub), CC-885 against DMSO” value is listed as 6-12 fold more ubiquitinated GSPT1 was captured by the streptavidin beads. Also, the “differential enrichment in streptavidin pulldown (MS, triplicates, A3-HA-Ub), PROTAC dBET6 (1 µM) against DMSO” value in data set [5] was “CRBN-BirA; ubiquitinated substrates BRD2, BRD3, BRD4 observed in the upper right portion of the top left volcano plot”. In data set [6], this substance registered a # of PSMs in streptavidin pulldown (MS), A3-Ub, CC-885 of 20 PSMs; a # of PSMs in streptavidin pulldown (MS), A3-Ub, DMSO of 0 PSMs; a # of PSMs in streptavidin pulldown (MS), Avi-Ub, CC-885 of 13 PSMs; a # of PSMs in streptavidin pulldown (MS), Avi-Ub, DMSO of 0 PSMs. Also, in [6], the “biotinylation … against loss-of-function mutants” value is “substrates GSPT1, GSPT2, VCL and CSNK1A1 were identified”; the “differential enrichment in streptavidin pulldown (MS, triplicates, A3-Ub), CC-885 against DMSO” value is “GSPT1 and GSPT2 are observed to be the most upregulated proteins, both by amount and by statistical significance”. The “differential enrichment in streptavidin pulldown (MS, triplicates, A3-HA-Ub), PROTAC dBET6 (1 µM) against DMSO” value in data set [7] is recorded as “CRBN-BirA; ubiquitinated substrates BRD2, BRD3, BRD4 observed in the upper right portion of the top left volcano plot”. Also, in data set [8], the “proteins differentially biotinylated, VHL-BirA against CRBN-BirA (MS, triplicates, A3-tagged ubiquitin, HEK293T)” value is “Other identified proteins included GLUL, which is a reported a CRBN substrate”.
For CRBN-BirA mutant D249Y, the “biotinylation in streptavidin pulldown (MS, A3-HA-Ub, CC-885 1 µM), D249Y mutant against WT CRBN-BirA” value in data set [3], in data set [4] and in data set [6] was “a decrease in biotinylation by the loss-of-function CRBN-BirA mutants” each time.
Turning to CRBN-BirA mutant W386A, the “biotinylation in streptavidin pulldown (MS, A3-HA-Ub, CC-885 1 µM), W386A mutant against WT CRBN-BirA” value in data set [3], in data set [4] and in data set [6] was “a decrease in biotinylation by the loss-of-function CRBN-BirA mutants” throughout.
Regarding “DCAF15 fused to BirA biotin ligase (DCAF15-BirA)”, the “differential enrichment in streptavidin pulldown (MS, triplicates, A3-HA-Ub), E7820 (10 µM) against DMSO” value in data set [9] was “the induced ubiquitinated substrate RBM39/CAPERα was produced as a result of the use of the E7820 molecular glue in conjunction with DCAF15-BirA and associated CRL4 E3 ligase”.
Turning to “VHL E3 ligase fused to E. coli wild-type BirA biotin ligase (VHL-BirA)”, the “differential enrichment in streptavidin pulldown (MS, triplicates, A3-HA-Ub), PROTAC ARV-771 (1 µM) against DMSO” value in [1] is recorded as “VHL-BirA; ubiquitinated substrates BRD2, BRD3, BRD4 observed in the upper right portion of the top right volcano plot”; in data set [5], “VHL-BirA; ubiquitinated substrates BRD2, BRD3, BRD4 observed in the upper right portion of the top right volcano plot”; in [7], “VHL-BirA; ubiquitinated substrates BRD2, BRD3, BRD4 observed in the upper right portion of the top right volcano plot”. In addition, the “proteins differentially biotinylated by VHL-BirA against CRBN-BirA (MS, triplicates, A3-tagged ubiquitin, HEK293T)” value in [10] was “One of the best known VHL substrates, HIF1A was among the hits of differentially biotinylated proteins by VHL-BirA”.
